From US20200181261A1

How the values were obtained:
[1] = target: human CEACAM6, full-length, on cells (human) (UniProt P40199); test: FACS, 5 µg/ml, HCC-2935 cells
[2] = target: human CEACAM6, full-length, on cells (human) (UniProt P40199); test: FACS, 5 µg/ml, NCI-H1437 cells
[3] = target: human CEACAM6, full-length, on cells (human) (UniProt P40199); test: FACS, 5 µg/ml, NCI-H2228 cells
[4] = target: human CEACAM6, full-length, on cells (human) (UniProt P40199); test: FACS, 5 µg/ml, DAN-G cells
[5] = target: human CEACAM6, full-length, on cells (human) (UniProt P40199); test: FACS, 5 µg/ml, CL-34 cells
[6] = target: human CEACAM6, full-length, on cells (human) (UniProt P40199); test: FACS, 5 µg/ml, RPMI-8226 cells
[7] = target: human CEACAM6, full-length, on cells (human) (UniProt P40199); test: FACS, 5 µg/ml, HT55 cells
[8] = target: human CEACAM6, full-length, on cells (human) (UniProt P40199); test: FACS, 5 µg/ml, T-47D cells
[9] = target: human CEACAM6, full-length, on cells (human) (UniProt P40199); test: FACS, 5 µg/ml, BxPc3 cells
[10] = target: human CEACAM6, full-length, on cells (human) (UniProt P40199); test: FACS, 5 µg/ml, SNU-C1 cells
[11] = target: human CEACAM6, full-length, on cells (human) (UniProt P40199); test: FACS, 5 µg/ml, KM-12 cells
[12] = target: human CEACAM6, full-length, on cells (human) (UniProt P40199); test: FACS, 5 µg/ml, NCI-H441 cells
[13] = target: human CEACAM6, full-length, on cells (human) (UniProt P40199); test: FACS, 5 µg/ml, LoVo cells
[14] = target: human CEACAM6, full-length, on cells (human) (UniProt P40199); test: FACS, 5 µg/ml, NCI-H1993 cells
[15] = target: human CEACAM6, full-length, on cells (human) (UniProt P40199); test: FACS, 5 µg/ml, WiDr cells
[16] = target: human CEACAM6, full-length, on cells (human) (UniProt P40199); test: FACS, 5 µg/ml, SW1116 cells
[17] = target: human CEACAM6, full-length, on cells (human) (UniProt P40199); test: FACS, 5 µg/ml, SNU-1 cells
[18] = target: human CEACAM6, full-length, on cells (human) (UniProt P40199); test: FACS, 5 µg/ml, Calu-3 cells
[19] = target: human CEACAM6, full-length, on cells (human) (UniProt P40199); test: FACS, 5 µg/ml, MCF7/AdrVp cells
[20] = target: human CEACAM6, full-length, on cells (human) (UniProt P40199); test: FACS, 5 µg/ml, HCC827 cells
[21] = target: human CEACAM6, full-length, on cells (human) (UniProt P40199); test: FACS, 5 µg/ml, MCF7 cells
[22] = target: human CEACAM6, full-length, on cells (human) (UniProt P40199); test: FACS, 5 µg/ml, KS cells
[23] = target: human CEACAM6, full-length, on cells (human) (UniProt P40199); test: FACS, 5 µg/ml, ZR-75-1 cells
[24] = target: human CEACAM6, full-length, on cells (human) (UniProt P40199); test: FACS, 5 µg/ml, HPAFII cells
[25] = target: human CEACAM6, extracellular (mature form), R&D Systems 3934-CM (human) (UniProt P40199); test: SPR, antibody captured, antigen as analyte
Chain of human CEACAM6, extracellular (mature form), R&D Systems 3934-CM (human) (P40199 other isoform, or with tags, fused parts or gaps limits assumed): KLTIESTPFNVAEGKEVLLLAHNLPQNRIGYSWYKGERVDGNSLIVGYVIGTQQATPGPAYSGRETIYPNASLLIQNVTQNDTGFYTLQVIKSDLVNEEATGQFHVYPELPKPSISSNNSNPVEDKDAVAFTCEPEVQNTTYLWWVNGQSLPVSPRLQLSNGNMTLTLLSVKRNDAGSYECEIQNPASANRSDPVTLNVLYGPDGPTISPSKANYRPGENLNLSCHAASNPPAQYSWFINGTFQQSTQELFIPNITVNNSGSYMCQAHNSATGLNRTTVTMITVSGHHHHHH

[26] = target: human CEACAM6, full-length, on cells (human) (UniProt P40199); test: FACS, 5 µg/ml, A549 cells
[27] = target: human CEACAM6, full-length, on cells (human) (UniProt P40199); test: FACS, 5 µg/ml, MDA-MB-361 cells
[28] = target: human CEACAM6, full-length, on cells (human) (UniProt P40199); test: FACS, transfected HeLa cells
[29] = target: human CEACAM6, full-length, on cells (human) (UniProt P40199); test: FACS, 5 µg/ml, BT-474 cells
[30] = target: human CEACAM6, full-length, on cells (human) (UniProt P40199); test: FACS, 5 µg/ml, HCC2998 cells
[31] = target: human CEACAM6, full-length, on cells (human) (UniProt P40199); test: FACS, 5 µg/ml, NCI-H1688 cells
[32] = target: human CEACAM6, full-length, on cells (human) (UniProt P40199); test: FACS, 5 µg/ml, HT29 cells
[33] = target: human CEACAM6, full-length, on cells (human) (UniProt P40199); test: FACS, 5 µg/ml, HPAC cells
[34] = target: human CEACAM6, full-length, on cells (human) (UniProt P40199); test: FACS, 5 µg/ml, AsPC-1 cells

Chain of human CEACAM6, full-length, on cells (human) (P40199 35-320 V239G): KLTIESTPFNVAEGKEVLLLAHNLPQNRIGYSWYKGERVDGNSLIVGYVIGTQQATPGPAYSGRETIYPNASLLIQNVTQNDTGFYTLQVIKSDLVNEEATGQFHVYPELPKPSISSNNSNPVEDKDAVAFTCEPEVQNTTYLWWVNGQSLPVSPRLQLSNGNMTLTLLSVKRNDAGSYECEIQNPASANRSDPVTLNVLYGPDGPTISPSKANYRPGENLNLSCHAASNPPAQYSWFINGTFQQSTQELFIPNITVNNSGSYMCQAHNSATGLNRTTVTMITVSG

FACS median fluorescence (medianfluorescence) [1]: > 10000
FACS median fluorescence (medianfluorescence) [2]: 1000 to 10000
FACS median fluorescence (medianfluorescence) [3]: 100 to 1000
FACS median fluorescence (medianfluorescence) [4]: 10 to 100
FACS median fluorescence (medianfluorescence) [5]: 10 to 100
FACS median fluorescence (medianfluorescence) [6]: 10 to 100
FACS median fluorescence (medianfluorescence) [7]: 1000 to 10000
FACS median fluorescence (medianfluorescence) [8]: 10 to 100
FACS median fluorescence (medianfluorescence) [9]: 1000 to 10000
FACS median fluorescence (medianfluorescence) [10]: 100 to 1000
FACS median fluorescence (medianfluorescence) [11]: 100 to 1000
FACS median fluorescence (medianfluorescence) [12]: 100 to 1000
FACS median fluorescence (medianfluorescence) [13]: 100 to 1000
FACS median fluorescence (medianfluorescence) [14]: 1000 to 10000
FACS median fluorescence (medianfluorescence) [15]: 100 to 1000
FACS median fluorescence (medianfluorescence) [16]: 1000 to 10000
FACS median fluorescence (medianfluorescence) [17]: 1000 to 10000
FACS median fluorescence (medianfluorescence) [18]: 10 to 100
FACS median fluorescence (medianfluorescence) [19]: 10 to 100
FACS median fluorescence (medianfluorescence) [20]: 100 to 1000
FACS median fluorescence (medianfluorescence) [21]: 10 to 100
FACS median fluorescence (medianfluorescence) [22]: 1000 to 10000
FACS median fluorescence (medianfluorescence) [23]: 100 to 1000
FACS median fluorescence (medianfluorescence) [24]: 1000 to 10000
Kd [25]: 0.022 µM
FACS median fluorescence (medianfluorescence) [26]: 1000 to 10000
FACS median fluorescence (medianfluorescence) [27]: 1000 to 10000
FACS median fluorescence (medianfluorescence) [28]: 1000 to 10000
FACS median fluorescence (medianfluorescence) [29]: 1000 to 10000
FACS median fluorescence (medianfluorescence) [30]: 100 to 1000
FACS median fluorescence (medianfluorescence) [31]: 10 to 100
FACS median fluorescence (medianfluorescence) [32]: 100 to 1000
FACS median fluorescence (medianfluorescence) [33]: > 10000
FACS median fluorescence (medianfluorescence) [34]: 1000 to 10000
Substance: 9A6 (mouse IgG1) (antibody)
